Data: publication doi:10.1101/688531
Values joined by “and” are separate entries in the source; they are usually repeats but may differ in a detail not shown here. Identical values can stand only once.

Target: synthetic horse SLN (horse)
Assay: SDS-PAGE with immunoblot

- stoichiometry N: 2 and 3
Substance: synthetic horse SLN (peptide)
